Tests used:
[1] = target: T1, Recombinant purified FcRH5 Ig-8 domain (UniProt Q96RD9 743-850, limits assumed); experiment: SPR, Biacore 8k, VHH-mIgG2a Fc captured by anti-mouse kit on CM5, FcRH5 Ig8 as analyte (500 nM, 2-fold dilutions), 1:1 Langmuir fit, 25 C
T1 construct: domain: Ig8
T1 sequence (looked up): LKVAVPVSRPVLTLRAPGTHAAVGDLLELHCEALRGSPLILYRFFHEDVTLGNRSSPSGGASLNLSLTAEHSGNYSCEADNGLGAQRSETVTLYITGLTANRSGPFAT
Description: (§1) Recombinant anti-FcRH5 antibodies in mouse IgG2a format were captured on flow cell 2 on a Series S CM5 chip (GE Healthcare), functionalised with anti-mouse capture kit according to manufacturer's recommendations (GE Healthcare). Antibodies were captured to a density of 160 RU using a Biacore 8k instrument. HBS-P+ buffer was used as running buffer in all experimental conditions. Recombinant purified FcRH5 Ig-8 domain at known concentrations (500 nM with 2-fold serial dilutions) used as the ‘analyte’ and injected over the respective flow cells with 150s contact time and 500s dissociation at 30 μl/minute of flow rate with a constant temperature of 25° C. In each experiment, flow cell 1 was unmodified and used for reference subtraction. A ‘0 concentration’ sensogram of buffer alone was used as a double reference subtraction to factor for drift. Data were fit to a 1:1 Langmuir binding model. Since a capture system was used, a local maximal analytical response (Rmax) parameter was used for the data fitting in each case.

[2] = target: T1, Recombinant purified FcRH5 Ig-8 domain; experiment: SPR, Biacore 8k, VHH-mIgG2a Fc captured, FcRH5 Ig8 as analyte, 1:1 Langmuir fit, 25 C; footnote: kd outside instrument limits
Description: as §1

- kon [1]: 50000 M⁻¹ s⁻¹
- Kd [2]: < 0.2 nM
- koff [2]: < 1e-05 s⁻¹
B1: Anti-FcRH5 VHH-Fc AU60390 (AbVec.aFcRH5.dAb-MIgG2a-Fc.Clone.C06) (Fc fusion)
chain: QVQLQQSGGGLVQAGDSLRLSCAASGRTFSNSTMGWFRQAPGKERKFVAVISWSGGTYAYAESVKGRFTISRDNAKNTVYLQMNSLKPEDTAVYYCAAARKGWSTRGDDYDYWGQGTQVTVS
notes: not shown: murine IgG2a Fc domain

Reference: US20250289891A1 (AUTOLUS, published 2025)
